The values that follow come from US20060183159A1, “Method for engineering a protein by in vitro coevolution” (priority 2005, published 2006).

Entries after “also recorded” stand apart in the source; their conditions may differ.

Assay [1] can be described thus: Scatchard analysis of E2 binding to wild-type and mutant hERαLBD proteins. The following applies: n = 2-3, error = range (n = 2) or S.E. (n > 2).
A short description of assay [2]: Competitive binding (RBA) with 2 nM [3H]-E2, testosterone.
Assay [3] in a line: Competitive binding (RBA) with 2 nM [3H]-E2, progesterone.
The nature of assay [4]: Competitive binding (RBA) with 2 nM [3H]-E2, corticosterone.
Another assay deals with progesterone. Description: Yeast two-hybrid based cell growth assay, response to progesterone. The following applies: in yeast; saturating ligand concentration 10^−5 M. As for the experimental part:
(§1) A yeast two-hybrid based cell growth assay was used to quantify the ligand activity of the wild-type and mutant hERαLBD in 96-well plates (Chen, et al. (2004) supra). Briefly, yeast cells harboring the plasmid containing the target hERαLBD and plasmid pGAD424 SRC-1 were grown to saturation (OD600 4-5) in 2-3 mL minimal medium lacking tryptophan and leucine, and then diluted to OD600 0.002 using minimal medium lacking tryptophan, leucine and histidine. Each well contained 200 μL diluted yeast cells and 0.2 μL of specified ligand dissolved in 100% ethanol (E2, testosterone, and progesterone) or DMSO (corticosterone). The 96-well plates were incubated at 30° C. for 24 hours and the cell density was measured at 600 nm using a SPECTRAMAX® plate reader (Molecular Devices, Sunnyvale, Calif.).

For a further assay, the system named is corticosterone. Kind of assay: Yeast two-hybrid based cell growth assay, response to corticosterone. The following applies: in yeast; corticosterone 10^−4 M, 24 hours (up to four days at 30° C.). As for the experimental part:
as §1

The mark [5] stands for this setting: RBA = EC50^E2/EC50^ligand × 100, 2 nM [3H]-E2.

B1: Pg10-1: hERαLBD variant with Glu353Gln, Gly390Asp, His524Asn, Leu536His, Thr585Ser (SEQ ID NOs:11 and 12) (protein)
chain: MTMTLHTKASGMALLHQIQGNELEPLNRPQLKIPLERPLGEVYLDSSKPAVYNYPEGAAYEFNAAAAANAQVYGQTGLPYGPGSEAAAFGSNGLGGFPPLNSVSPSPLMLLHPPPQLSPFLQPHGQQVPYYLENEPSGYTVREAGPPAFYRPNSDNRRQGGRERLASTNDKGSMAMESAKETRYCAVCNDYASGYHYGVWSCEGCKAFFKRSIQGHNDYMCPATNQCTIDKNRRKSCQACRLRKCYEVGMMKGGIRKDRRGGRMLKHKRQRDDGEGRGEVGSAGDMRAANLWPSPLMIKRSKKNSLALSLTADQMVSALLDAEPPILYSEYDPTRPFSEASMMGLLTNLADRQLVHMINWAKRVPGFVDLTLHDQVHLLECAWLEILMIDLVWRSMEHPGKLLFAPNLLLDRNQGKCVEGMVEIFDMLLATSSRFRMMNLQGEEFVCLKSIILLNSGVYTFLSSTLKSLEEKDHIHRVLDKITDTLIHLMAKAGLTLQQQHQRLAQLLLILSHIRHMSNKGMENLYSMKCKNVVPHYDLLLEMLDAHRLHAPTSRGGASVEETDQSHLATAGSTSSHSLQKYYISGEAEGFPATV
For the molecule B1, the Kd is 0.81 ± 0.23 nM in assay [1]; 388 nM in assay [2] (calculated with Kd^ligand = (Kd^E2/RBA) × 100, read-out: Kd T (testosterone)); 119 nM in assay [3] (calculated with Kd^ligand = (Kd^E2/RBA) × 100, read-out: Kd Pg (progesterone)); 10300 nM in assay [4] (calculated with Kd^ligand = (Kd^E2/RBA) × 100, read-out: Kd Cs (corticosterone)). For the same molecule, the “RBA T (testosterone)” value in assay [2] (setting [5]) is listed as 0.21 ± 0.06 (3). Besides, the “RBA Pg (progesterone)” value in assay [3] (setting [5]) was 0.679 ± 0.021 (3). The “RBA Cs (corticosterone)” value in assay [4] (setting [5]) is 0.008 ± 0.001 (3). Besides, the response to progesterone result in the assay on progesterone is “responses to progesterone at nanomolar concentrations”. Moreover, the response to corticosterone result in the assay on corticosterone is “significant responses to corticosterone; also recorded: responded to corticosterone at submillimolar concentrations”.
